The text below walks through data of US20190315842A1 (DUKE UNIVERSITY, published 2019).

T1: GPPPPIDNGDITSFP(GGGK-biotin)
T1 construct: also called biotinylated 15-mer peptide; biotinylated 19-mer
T1 peptide: GPPPPIDNGDITSFPGGGK(Biotin)

B1: 7967/6002 (antibody, V domains shown)
VH: LVESGGGVVQPGKSLRLSCVASGFSFSTYGMHWVRQAPGKGLEWVAVMSFDGKTKYYADSVKGRFTISRDNPKNTLYLQMNSLRSEDTAVYYCAKGGAAAAVFDSWGPGILLTVSS
VL: MTQSPNSLAVSLGGRATINCKASQSILYRSNNKNYLAWYQHKAGQPPKLLIYWASTRESGVPERFSGSGSRTDFTLTINGLQAEDVAVYYCQQYYNPPWTFGQGTKVEIK
notes: also called clone 8; H007967/K006002
B2: 7965/6000 (antibody, V domains shown)
VH: LVESGGGVVQPGKSLRLSCVASGFTFSSYGMHWVRQAPGKGLEWVAVMSFDGKTKYYADSVKGRFTISRDNPKNTLYLQMNSLRSEDTAVYYCAKGGAAAAVFDSWGQGILLTVSS
VL: MTQSPNSLAVSLGGRATINCKTSQSILYRSNNKNYLAWYQHKSGQPPKLLIYWASTRESGVPDRFSGSGSRTDFTLTISGLQAEDVAVYYCQQYYNPPWTFGQGTKVEIK
notes: also called clone 12; H007965/K006000
B3: 7971/6005 (antibody, V domains shown)
VH: LVESGGGVVQPGRSLRLSCAASGFTFSRYGMHWVRQAPGKGLEWVAVMSYDGSTKYYADSVKGRFAISRDNPKNTLFLQMNSLRPDDTAVYYCAKGGAAAAVMDVWGKGTTVTVSS
VL: MTQSPDSLTVSLGERATISCKSSQRLLYSSNNKNYLAWYQQKPGQPPKLLMYWASTRESGVPDRFSGSGSGTDFSLTISSLQAEDVAVYYCQQYYNPPWTFGQGTKVEVK
notes: also called clone 14; H007971/K006005
B4: 7983/6019 (antibody, V domains shown)
VH: EVQLVESGGGVVQPGRSLRLSCAASGFTFNRFGMHWVRQRQVPGKGLEWVAVISYDDNTKYYADSVKGRFTISRDNNKSTLYLQMSSLRVEDTAVYFCAKGSTAAAVLDYWGQGTLVTVSS
VL: DIVMTQSPDSLTLSLGERATINCKSSQSLFYRSNNKSYLAWYQQKPGQPPKLLIYWASVRESGVPDRFTGSGSVTDFTLTISSLRAEDVAVYYCQQYFTTPLTFGGGTKVAIK
notes: also called clone 15; H007983/K006019
B5: 7958/5992 (antibody, V domains shown)
VH: LVESGGGVVPPGKSLRLSCAASGFTFSLYGIHWVRQAPGKGLEWVAVISYDGNTKYYTDSVKGRFTISRDNAKNTIYLQMNSLRLDDTAVYYCAKGAANSATFDFWGRGTMVTVSS
VL: MTQSPDSLTLSLGERATINCRSSRTVLYRSNNKNYLAWYQHKPGQPPKLLMSWASTRETGVPDRFSGSGSGTHFTLTITSLQPEDVAVYYCQQYYSPPWTFGQGTKVEIR
notes: also called clone 4; H007958/K005992
B6: 7963/5998 (antibody, V domains shown)
VH: LVESGGGVVPPGKSLRLSCAASGFTFSLYGIHWVRQAPGKGLEWVAVISYDGNTKYYTDSVKGRFTISRDNAKNTIYLQMNSLRLDDTAVYYCAKGAANSATFDFWGRGTMVTVSS
VL: MTQSPDSLTLSLGERATINCRSSRTVLYRSNNKNYLAWYQHKPGQPPKLLMSWASTRETGVPDRFSGSGSGTHFTLTITSLQPEDVAVYYCQQYYSPPWTFGQGTKVEIR
notes: also called clone 5; H007963/K005998
B7: 7982/6018 (antibody, V domains shown)
VH: LVESGGGVVPPGKSLRLSCAASGFTFSLYGIHWVRQAPGKGLEWVAVISYDGNTKYYTDSVKGRFTISRDNAKNTIYLQMNSLRLDDTAVYYCAKGAANSATFDFWGRGTMVTVSS
VL: MTQSPDSLTLSLGERATINCRSSRTVLYRSNNKNYLAWYQHKPGQPPKLLMSWASTRETGVPDRFSGSGSGTHFTLTITSLQPEDVAVYYCQQYYSPPWTFGQGTKVEIR
notes: also called clone 6; H007982/K006018

Where no end group is shown, it is not given here. The star is where a group is joined. Biotin = O=C1N[C@H]2[C@H](CS[C@H]2CCCCC(=O)*)N1

The assay deals with T1, GPPPPIDNGDITSFP(GGGK-biotin). Description: ELISA: biotinylated peptide captured on immobilized Neutravidin, antibody at 0.5 µg/ml, anti-human IgG-HRP/ABTS, OD 405 nm. In general terms: ELISA stands for enzyme-linked immunosorbent assay.
Description: After washing, recombinant human monoclonal antibodies were added to the wells at 0.5 μg/ml and incubated for 2 hr at room temperature. The wells were washed and incubated with goat anti-human IgG-gamma horseradish peroxidase conjugate at a 1:1000 dilution. After further washing, bound antibody was detected with 2,2′-azino-bis (3-ethylbenzthiazoline-6-sulfonic acid)(ABTS)/hydrogen peroxide and the absorbance measured at 405 nm.
Turning to B1, the binding result is listed as “binds”.
With B2, the binding result is “binds”.
For B3 the value was “binds”; for B4, “binds”; for B5, “binds”.
Consider B6, for which the binding result is recorded as “binds”.
The same measure for B7: “binds”.
